From patent publication US20120316071A1 (published 2012)
Positions count from the first letter of the chain named. Names and notes keep the numbering of the source. Values belong to the binder of their own block, whether it stands above or below them.

Experiments:
[1] = biological target: T1, rHuman CD44/Fc Chimera, CF (R&D Systems Cat#3660-CD) (human, UniProt P16070 21-220); assay: ECL multispot (MSD) assay, antigen spotted on plate; blank spot of this row 327
T1 construct: Bought recombinant protein; Fc part of the bought chimera not given

[2] = biological target: T2, rHuman Notch-1/Fc Chimera, CF (R&D Systems Cat#3647-TK) (human, UniProt P46531 19-526); assay: as above
T2 construct: Bought recombinant protein; Fc part of the bought chimera not given

[3] = biological target: T3, rHuman ErbB2/Fc Chimera, CF (R&D Systems Cat#1129-ER) (human, UniProt P04626 23-652); assay: as above
T3 construct: Bought recombinant protein; also called human epidermal growth factor 2 receptor; Fc part of the bought chimera not given

[4] = biological target: T4, Recombinant Human DLL4 (R&D Systems Cat#1506-D4/CF) (human, UniProt Q9NR61 27-524); assay: as above
T4 construct: Bought recombinant protein; also called delta-like protein 4; rHuman DLL4

[5] = biological target: T5, rHuman HGF R/c-MET/Fc Chimera, CF (R&D Systems Cat#358-MT/CF) (human, UniProt P08581 25-932); assay: as above
T5 construct: Bought recombinant protein; also called HGF R/Fc; hepatocyte growth factor receptor; Fc part of the bought chimera not given
T5 sequence (P08581 25-932, change not shown): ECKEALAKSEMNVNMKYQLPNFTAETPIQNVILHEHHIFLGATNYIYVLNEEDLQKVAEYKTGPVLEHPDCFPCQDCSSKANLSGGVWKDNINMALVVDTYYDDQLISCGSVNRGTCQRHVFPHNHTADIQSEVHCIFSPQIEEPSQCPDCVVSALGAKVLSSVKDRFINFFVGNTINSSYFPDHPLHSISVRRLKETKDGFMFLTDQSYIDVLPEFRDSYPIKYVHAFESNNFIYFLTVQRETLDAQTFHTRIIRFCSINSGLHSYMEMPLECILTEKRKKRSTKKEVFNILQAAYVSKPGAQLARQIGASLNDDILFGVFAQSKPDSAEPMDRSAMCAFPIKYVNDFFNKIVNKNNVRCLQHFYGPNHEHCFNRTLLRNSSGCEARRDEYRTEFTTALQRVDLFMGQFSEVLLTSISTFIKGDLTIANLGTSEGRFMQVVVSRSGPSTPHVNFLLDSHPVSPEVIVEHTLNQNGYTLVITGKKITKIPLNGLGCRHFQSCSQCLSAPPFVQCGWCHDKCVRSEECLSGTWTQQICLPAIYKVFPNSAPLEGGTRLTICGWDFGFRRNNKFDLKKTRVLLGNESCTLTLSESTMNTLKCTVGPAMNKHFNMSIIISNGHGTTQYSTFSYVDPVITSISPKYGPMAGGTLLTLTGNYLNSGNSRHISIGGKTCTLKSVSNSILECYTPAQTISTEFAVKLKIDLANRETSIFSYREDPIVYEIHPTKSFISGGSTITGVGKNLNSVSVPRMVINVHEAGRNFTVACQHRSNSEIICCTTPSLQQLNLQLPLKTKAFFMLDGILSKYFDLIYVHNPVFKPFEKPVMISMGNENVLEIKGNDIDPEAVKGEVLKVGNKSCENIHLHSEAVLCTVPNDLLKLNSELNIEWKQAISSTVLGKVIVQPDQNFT

[6] = biological target: T6, rHuman Erythropoietin R/Fc Chimera, CF (R&D Systems Cat#963-ER) (human, UniProt P19235 25-250); assay: as above
T6 construct: Bought recombinant protein; also called EPO R; EPO R/Fc; Fc part of the bought chimera not given
T6 sequence (looked up): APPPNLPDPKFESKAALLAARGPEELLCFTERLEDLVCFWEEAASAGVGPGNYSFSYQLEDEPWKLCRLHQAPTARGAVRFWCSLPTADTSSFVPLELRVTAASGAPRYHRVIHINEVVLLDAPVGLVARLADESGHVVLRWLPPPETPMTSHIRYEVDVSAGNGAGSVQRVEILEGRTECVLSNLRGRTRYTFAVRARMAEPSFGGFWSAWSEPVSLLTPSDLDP

[7] = biological target: T7, rHuman P-Cadherin/Fc Chimera, CF (R&D Systems Cat#861-PC) (human, UniProt P22223 108-654); assay: as above
T7 construct: Bought recombinant protein; Fc part of the bought chimera not given

[8] = biological target: T8, rHuman EGF R/Fc Chimera, CF (R&D Systems Cat#344-ER) (human, UniProt P00533 25-645); assay: as above
T8 construct: Bought recombinant protein; also called epidermal growth factor receptor; Fc part of the bought chimera not given

[9] = biological target: T9, rHuman IGF-1 sR, (IGF-1 sR), CF (R&D Systems Cat#391-GR) (human, UniProt P08069 31-932); assay: as above
T9 construct: Bought recombinant soluble receptor; also called insulin-like growth factor-1 soluble receptor

[10] = biological target: T1, rHuman CD44/Fc Chimera, CF (R&D Systems …); assay: ECL multispot (MSD) assay, antigen spotted on plate; blank spot
[11] = biological target: T2, rHuman Notch-1/Fc Chimera, CF (R&D …); assay: as above
[12] = biological target: T3, rHuman ErbB2/Fc Chimera, CF (R&D …); assay: as above
[13] = biological target: T4, Recombinant Human DLL4 (R&D Systems …); assay: as above
[14] = biological target: T5, rHuman HGF R/c-MET/Fc Chimera, CF (R&D …); assay: as above
[15] = biological target: T6, rHuman Erythropoietin R/Fc Chimera, CF …; assay: as above
[16] = biological target: T7, rHuman P-Cadherin/Fc Chimera, CF (R&D …); assay: as above
[17] = biological target: T8, rHuman EGF R/Fc Chimera, CF (R&D …); assay: as above
[18] = biological target: T9, rHuman IGF-1 sR, (IGF-1 sR), CF (R&D …); assay: as above
[19] = biological target: T1, rHuman CD44/Fc Chimera, CF (R&D Systems …); assay: ECL multispot (MSD) assay, antigen spotted on plate; blank spot of this row 278
[20] = biological target: T2, rHuman Notch-1/Fc Chimera, CF (R&D …); assay: as above
[21] = biological target: T3, rHuman ErbB2/Fc Chimera, CF (R&D …); assay: as above
[22] = biological target: T4, Recombinant Human DLL4 (R&D Systems …); assay: as above
[23] = biological target: T5, rHuman HGF R/c-MET/Fc Chimera, CF (R&D …); assay: as above
[24] = biological target: T6, rHuman Erythropoietin R/Fc Chimera, CF …; assay: as above
[25] = biological target: T7, rHuman P-Cadherin/Fc Chimera, CF (R&D …); assay: as above
[26] = biological target: T8, rHuman EGF R/Fc Chimera, CF (R&D …); assay: as above
[27] = biological target: T9, rHuman IGF-1 sR, (IGF-1 sR), CF (R&D …); assay: as above
[28] = biological target: T1, rHuman CD44/Fc Chimera, CF (R&D Systems …); assay: ECL multispot (MSD) assay, antigen spotted on plate; blank spot of this row 392
[29] = biological target: T2, rHuman Notch-1/Fc Chimera, CF (R&D …); assay: as above
[30] = biological target: T3, rHuman ErbB2/Fc Chimera, CF (R&D …); assay: as above
[31] = biological target: T4, Recombinant Human DLL4 (R&D Systems …); assay: as above
[32] = biological target: T5, rHuman HGF R/c-MET/Fc Chimera, CF (R&D …); assay: as above
[33] = biological target: T6, rHuman Erythropoietin R/Fc Chimera, CF …; assay: as above
[34] = biological target: T7, rHuman P-Cadherin/Fc Chimera, CF (R&D …); assay: as above
[35] = biological target: T8, rHuman EGF R/Fc Chimera, CF (R&D …); assay: as above
[36] = biological target: T9, rHuman IGF-1 sR, (IGF-1 sR), CF (R&D …); assay: as above

B1: Fab VH1-46_IGHD6-6*01_IGHJ1*01 S102A/S103P/S104F/H111F (APFF) & L6_IGKJ1*01 S30Q (Fab, V domains shown)
VH: QVQLVQSGAEVKKPGASVKVSCKASGYTFTSYYMHWVRQAPGQGLEWMGIINPSGGSTSYAQKFQGRVTMTRDTSTSTVYMELSSLRSEDTAVYYCAREEYAPFSAEYFQFWGQGTLVTVSS
VL: EIVLTQSPATLSLSPGERATLSCRASQSVQSYLAWYQQKPGQAPRLLIYDASNRATGIPARFSGSGSGTDFTLTISSLEPEDFAVYYCQQRSNWPPWTFGQGTKVEIKR
notes: Fab made in E. coli: VH cloned into Plasmid A (CH1, His6 and Flag tags), kappa VL into Plasmid C (kappa CL); also called APFF / S30Q
- ECL signal [1]: 411
- ECL signal [2]: 326
- ECL signal [3]: 340
- ECL signal [4]: 197000
- ECL signal [5]: 344
- ECL signal [6]: 376
- ECL signal [7]: 393
- ECL signal [8]: 381
- ECL signal [9]: 354

B3: Fab VH1-46_IGHD6-6*01_IGHJ1*01 S102A/S103P/S104F/H111F (APFF) & L6_IGKJ1*01 S30R (Fab, V domains shown)
VH: B1 VH
VL: B1 VL with Q30R
notes: Fab made in E. coli: VH cloned into Plasmid A (CH1, His6 and Flag tags), kappa VL into Plasmid C (kappa CL); also called APFF / S30R
- ECL signal [19]: 472
- ECL signal [20]: 313
- ECL signal [21]: 404
- ECL signal [22]: 189000
- ECL signal [23]: 452
- ECL signal [24]: 525
- ECL signal [25]: 442
- ECL signal [26]: 395
- ECL signal [27]: 422

Second part, the binder after the results:

- ECL signal [10]: 375
- ECL signal [11]: 294
- ECL signal [12]: 279
- ECL signal [13]: 141000
- ECL signal [14]: 394
- ECL signal [15]: 536
- ECL signal [16]: 333
- ECL signal [17]: 412
- ECL signal [18]: 365
B2: Fab VH1-46_IGHD6-6*01_IGHJ1*01 S102A/S103P/S104F/H111F (APFF) & L6_IGKJ1*01 S30V (Fab, V domains shown)
VH: B1 VH
VL: B1 VL with Q30V
notes: Fab made in E. coli: VH cloned into Plasmid A (CH1, His6 and Flag tags), kappa VL into Plasmid C (kappa CL); also called APFF / S30V

- ECL signal [28]: 521
- ECL signal [29]: 375
- ECL signal [30]: 269
- ECL signal [31]: 136000
- ECL signal [32]: 320
- ECL signal [33]: 470
- ECL signal [34]: 418
- ECL signal [35]: 383
- ECL signal [36]: 401
B4: Fab VH1-46_IGHD6-6*01_IGHJ1*01 S102A/S103P/S104F/H111F (APFF) & L6_IGKJ1*01 S30T (Fab, V domains shown)
VH: B1 VH
VL: B1 VL with Q30T
notes: Fab made in E. coli: VH cloned into Plasmid A (CH1, His6 and Flag tags), kappa VL into Plasmid C (kappa CL); also called APFF / S30T
